tested on: Escherichia coli TOP10; test: shrunken log2 fold change of peptide-encoding DNA abundance (4.5 h post-induction vs induction); higher = less antimicrobial activity (less host growth inhibition); conditions: time post-induction: 4.5 h; library: site-saturation at positions 5, 18, 19, 20
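Also: peptides expressed intracellularly from a pBAD plasmid library in pooled LB shake-flask culture, induced with 0.3% L-arabinose, DNA abundance read by NGS, three biological replicates, DESeq2 with apeglm shrinkage.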

Sequence	shrunken log2 fold change
RRIRDRPPRLPRPRPRPNPIPRP	-0.132
RRIRMRPPRLPRPRPRPRNQPRP	0.484
RRIRLRPPRLPRPRPRPMKYPRP	-0.236
RRIRWRPPRLPRPRPRPLHTPRP	0.0467
RRIRPRPPRLPRPRPRPRVNPRP	-0.194
RRIRRRPPRLPRPRPRPKAYPRP	0.224
RRIRSRPPRLPRPRPRPCLSPRP	-0.000866
RRIRHRPPRLPRPRPRPFLLPRP	-0.502
RRIRSRPPRLPRPRPRPIGIPRP	-0.67
RRIRERPPRLPRPRPRPNVYPRP	-0.439
RRIRQRPPRLPRPRPRPYHYPRP	-0.711
RRIRPRPPRLPRPRPRPVRTPRP	0.385
RRIRVRPPRLPRPRPRPPAIPRP	0.376
RRIRVRPPRLPRPRPRPDIEPRP	-0.0848
RRIRWRPPRLPRPRPRPTFTPRP	0.195
RRIRFRPPRLPRPRPRPLNVPRP	-0.345
RRIRIRPPRLPRPRPRPGWDPRP	0.105
RRIRCRPPRLPRPRPRPKFSPRP	-0.0966
RRIRCRPPRLPRPRPRPYLYPRP	-1.01
RRIRNRPPRLPRPRPRPMVCPRP	-0.018
RRIRMRPPRLPRPRPRPQEVPRP	0.126
RRIRKRPPRLPRPRPRPIQDPRP	-0.106

Sequence	shrunken log2 fold change
RRIRARPPRLPRPRPRPKLQPRP	0.64
RRIRWRPPRLPRPRPRPLGGPRP	0.253
RRIRFRPPRLPRPRPRPSACPRP	0.0977
RRIRRRPPRLPRPRPRPDWFPRP	0.276
RRIRRRPPRLPRPRPRPPVPPRP	0.753
RRIRQRPPRLPRPRPRPYTSPRP	-0.0321
RRIRTRPPRLPRPRPRPLPNPRP	0.203
RRIRTRPPRLPRPRPRPHRIPRP	-0.052
RRIRGRPPRLPRPRPRPNTSPRP	0.172
RRIRGRPPRLPRPRPRPNNIPRP	-0.163
RRIRKRPPRLPRPRPRPLDFPRP	0.188
RRIRSRPPRLPRPRPRPCMVPRP	-0.511
RRIRVRPPRLPRPRPRPNQDPRP	-0.116
RRIRTRPPRLPRPRPRPSQSPRP	-0.114
RRIRGRPPRLPRPRPRPCSGPRP	-0.111
RRIRMRPPRLPRPRPRPMFPPRP	0.164
RRIRPRPPRLPRPRPRPLGRPRP	0.0841
RRIRPRPPRLPRPRPRPTQIPRP	0.13
RRIRDRPPRLPRPRPRPMGLPRP	-0.00663
RRIRCRPPRLPRPRPRPCNMPRP	-0.502
RRIRNRPPRLPRPRPRPHIKPRP	-0.595
RRIRMRPPRLPRPRPRPNLRPRP	-0.0219

Sequence	shrunken log2 fold change
RRIRVRPPRLPRPRPRPIDWPRP	0.224
RRIRDRPPRLPRPRPRPVMIPRP	0.0644
RRIRTRPPRLPRPRPRPSFTPRP	-0.867
RRIRNRPPRLPRPRPRPTDIPRP	-0.296
RRIRTRPPRLPRPRPRPRVKPRP	-0.0675
RRIRDRPPRLPRPRPRPEMSPRP	0.00748
RRIRIRPPRLPRPRPRPRSYPRP	-0.381
RRIRTRPPRLPRPRPRPIYPPRP	-0.243
RRIRDRPPRLPRPRPRPSRKPRP	-0.0764
RRIRYRPPRLPRPRPRPFQFPRP	0.015
RRIRKRPPRLPRPRPRPDCNPRP	-0.00139
RRIRDRPPRLPRPRPRPHVWPRP	0.0894
RRIRCRPPRLPRPRPRPKATPRP	0.0985
RRIRQRPPRLPRPRPRPVDRPRP	-0.0864
RRIRFRPPRLPRPRPRPDSEPRP	0.104
RRIRNRPPRLPRPRPRPVCGPRP	0.0972
RRIRMRPPRLPRPRPRPHMIPRP	-0.159
RRIRCRPPRLPRPRPRPTGYPRP	-0.0363
RRIRYRPPRLPRPRPRPNDGPRP	-0.0117
RRIRDRPPRLPRPRPRPTNPPRP	-0.417
RRIRHRPPRLPRPRPRPMPVPRP	-0.0266
RRIRIRPPRLPRPRPRPSVGPRP	-0.261

Sequence	shrunken log2 fold change
RRIRSRPPRLPRPRPRPNNKPRP	-0.559
RRIRWRPPRLPRPRPRPRCVPRP	0.117
RRIRHRPPRLPRPRPRPITIPRP	-0.124
RRIRHRPPRLPRPRPRPMTPPRP	0.0337
RRIRGRPPRLPRPRPRPINPPRP	-0.0416
RRIRARPPRLPRPRPRPHHDPRP	-0.0472
RRIRKRPPRLPRPRPRPWWPPRP	0.0304
RRIRGRPPRLPRPRPRPLVPPRP	0.417
RRIRSRPPRLPRPRPRPRFTPRP	-0.115
RRIRQRPPRLPRPRPRPEPSPRP	0.102
RRIRVRPPRLPRPRPRPVNVPRP	-0.411
RRIRCRPPRLPRPRPRPYCTPRP	-0.503
RRIRYRPPRLPRPRPRPPHCPRP	-0.396
RRIRRRPPRLPRPRPRPHYHPRP	-0.35
RRIRSRPPRLPRPRPRPYYWPRP	-0.00332
RRIRLRPPRLPRPRPRPAFRPRP	0.0862
RRIRVRPPRLPRPRPRPRCTPRP	0.0149
RRIRRRPPRLPRPRPRPEWGPRP	0.0686
RRIRFRPPRLPRPRPRPVMWPRP	0.0942
RRIRARPPRLPRPRPRPSMKPRP	-0.037
RRIRRRPPRLPRPRPRPTHGPRP	1.37
RRIRGRPPRLPRPRPRPEYYPRP	0.166

Sequence	shrunken log2 fold change
RRIRGRPPRLPRPRPRPHHHPRP	-0.139
RRIRLRPPRLPRPRPRPHDEPRP	0.0746
RRIRHRPPRLPRPRPRPCTRPRP	0.0237
RRIRQRPPRLPRPRPRPFIGPRP	-0.281
RRIRLRPPRLPRPRPRPKMFPRP	0.0156
RRIRARPPRLPRPRPRPNWSPRP	0.225
RRIRTRPPRLPRPRPRPCYSPRP	-0.0481
RRIRARPPRLPRPRPRPPFPPRP	0.625
RRIRWRPPRLPRPRPRPFYQPRP	-0.0811
RRIRKRPPRLPRPRPRPWMTPRP	-0.13
RRIRERPPRLPRPRPRPIRSPRP	-0.112
RRIRCRPPRLPRPRPRPGISPRP	-0.195
RRIRHRPPRLPRPRPRPNPPPRP	0.0899
RRIRIRPPRLPRPRPRPGTYPRP	-0.0378
RRIRWRPPRLPRPRPRPNLLPRP	0.0966
RRIRVRPPRLPRPRPRPKIAPRP	0.0892
RRIRIRPPRLPRPRPRPKEKPRP	0.00643
RRIRYRPPRLPRPRPRPHPRPRP	-0.392
RRIRLRPPRLPRPRPRPFFDPRP	-0.0987
RRIRHRPPRLPRPRPRPLQLPRP	-0.213
RRIRGRPPRLPRPRPRPLGAPRP	1.07

Reference: the supplement of paper PMC9112550, “Optimization of the antimicrobial peptide Bac7 by deep mutational scanning” (BMC Biology, 2022)
